# B1: TGFβRIISHORT-Fc:ALK5-Fc heterodimer (Fc fusion)
# chain 1: TIPPHVQKSVNNDMIVTDNNGAVKFPQLCKFCDVRFSTCDNQKSCMSNCSITSICEKPQEVCVAVWRKNDENITLETVCHDPKLPYHDFILEDAASPKCIMKEKKKPGETFFMCSCSSDECNDNIIFSEEYNTSNPDTGGGTHTCPPCPAPELLGGPSVFLFPPKPKDTLMISRTPEVTCVVVDVSHEDPEVKFNWYVDGVEVHNAKTKPREEQYNSTYRVVSVLTVLHQDWLNGKEYKCKVSNKALPAPIEKTISKAKGQPREPQVYTLPPSRKEMTKNQVSLTCLVKGFYPSDIAVEWESNGQPENNYKTTPPVLKSDGSFFLYSKLTVDKSRWQQGNVFSCSVMHEALHNHYTQKSLSLSPGK
# chain 2: ALLPGATALQCFCHLCTKDNFTCVTDGLCFVSVTETTDKVIHNSMCIAEIDLIPRDRPFVCAPSSKTGSVTTTYCCNQDHCNKIELPTTVKSSPGLGPVETGGGTHTCPPCPAPELLGGPSVFLFPPKPKDTLMISRTPEVTCVVVDVSHEDPEVKFNWYVDGVEVHNAKTKPREEQYNSTYRVVSVLTVLHQDWLNGKEYKCKVSNKALPAPIEKTISKAKGQPREPQVYTLPPSREEMTKNQVSLTCLVKGFYPSDIAVEWESNGQPENNYDTTPPVLDSDGSFFLYSDLTVDKSRWQQGNVFSCSVMHEALHNHYTQKSLSLSPG
# notes: also called TGFβRIISHORT:ALK5-Fc Heterodimer; TGFβRII-Fc:ALK5-Fc heterodimer (short isoform)
# B2: TGFβRIILONG-Fc:ALK5-Fc heterodimer (Fc fusion)
# chain 1: TIPPHVQKSDVEMEAQKDEIICPSCNRTAHPLRHINNDMIVTDNNGAVKFPQLCKFCDVRFSTCDNQKSCMSNCSITSICEKPQEVCVAVWRKNDENITLETVCHDPKLPYHDFILEDAASPKCIMKEKKKPGETFFMCSCSSDECNDNIIFSEEYNTSNPDTGGGTHTCPPCPAPELLGGPSVFLFPPKPKDTLMISRTPEVTCVVVDVSHEDPEVKFNWYVDGVEVHNAKTKPREEQYNSTYRVVSVLTVLHQDWLNGKEYKCKVSNKALPAPIEKTISKAKGQPREPQVYTLPPSRKEMTKNQVSLTCLVKGFYPSDIAVEWESNGQPENNYKTTPPVLKSDGSFFLYSKLTVDKSRWQQGNVFSCSVMHEALHNHYTQKSLSLSPGK
# chain 2: B1 chain 2
# notes: also called TGFβRII-Fc:ALK5-Fc heterodimer (long isoform)
# Assays:
# BMP9 = target: T1, BMP9 (UniProt Q9UK05 320-429); experiment: Biacore SPR
# T1 construct: also called GDF2
# T1 sequence (looked up): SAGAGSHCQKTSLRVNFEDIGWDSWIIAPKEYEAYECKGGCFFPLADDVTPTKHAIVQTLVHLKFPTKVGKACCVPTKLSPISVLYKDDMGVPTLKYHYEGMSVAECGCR
# BMP10 = target: T2, BMP10 (UniProt O95393 317-424); experiment: Biacore SPR
# T2 sequence (looked up): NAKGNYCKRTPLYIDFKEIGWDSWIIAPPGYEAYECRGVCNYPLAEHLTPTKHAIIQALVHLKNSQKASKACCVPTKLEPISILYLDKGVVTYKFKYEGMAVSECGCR
# TGFβ2 [1] = target: T3, TGFβ2 (human, UniProt P61812 303-414); experiment: Biacore SPR; * low signal
# T3 construct: Human (PeproTech) is stated for the A549 reporter assay; also called TGF-beta2
# T3 sequence (looked up): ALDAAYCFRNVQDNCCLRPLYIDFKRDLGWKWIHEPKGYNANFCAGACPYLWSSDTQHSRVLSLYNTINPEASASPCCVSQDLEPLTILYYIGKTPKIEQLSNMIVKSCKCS
# Procedure: (§1) The heteromeric or homomeric protein complexes were independently captured onto the system using an anti-Fc antibody. Ligands were injected and allowed to flow over the captured receptor protein.
# TGFβ3 [2] = target: T4, TGFβ3 (human, UniProt P10600 301-412); experiment: Biacore SPR; * low signal
# T4 construct: Human (PeproTech) is stated for the A549 reporter assay; also called TGF-beta3
# T4 sequence (looked up): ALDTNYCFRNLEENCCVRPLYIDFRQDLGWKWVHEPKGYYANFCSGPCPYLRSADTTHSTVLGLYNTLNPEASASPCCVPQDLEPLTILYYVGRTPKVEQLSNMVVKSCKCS
# Procedure: as §1
# TGFβ1 [3] = target: T5, TGFβ1 (human, UniProt P01137 279-390); experiment: Biacore SPR; * low signal
# T5 construct: Human (PeproTech) is stated for the A549 reporter assay; also called TGF-beta1
# Procedure: as §1
# TGFβ2 [4] = target: T3, TGFβ2; experiment: cell-based or functional assay
# TGFβ3 [5] = target: T4, TGFβ3; experiment: cell-based or functional assay
# TGFβ1 [6] = target: T5, TGFβ1; experiment: cell-based or functional assay
# TGFβ2 [7] = target: T3, TGFβ2; experiment: Biacore SPR
# T5 sequence (P01137 279-390 limits assumed): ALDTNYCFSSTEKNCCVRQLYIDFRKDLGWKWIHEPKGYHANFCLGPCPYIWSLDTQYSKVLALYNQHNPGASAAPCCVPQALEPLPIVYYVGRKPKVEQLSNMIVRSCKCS
Binder,binding result (BMP9),binding result (BMP10),Kd (TGFβ2 [1]),koff (TGFβ2 [1]),kon (TGFβ2 [1]),Kd (TGFβ3 [2]),koff (TGFβ3 [2]),kon (TGFβ3 [2]),Kd (TGFβ1 [3]),koff (TGFβ1 [3]),kon (TGFβ1 [3]),"IC50 (pM), CAGA12-luciferase reporter gene assay in A549 cells, TGFβ2 at 480 pg/mL (TGFβ2 [4])","IC50 (pM), CAGA12-luciferase reporter gene assay in A549 cells, TGFβ3 at 270 pg/mL (TGFβ3 [5])","IC50 (pM), CAGA12-luciferase reporter gene assay in A549 cells, TGFβ1 at 640 pg/mL (TGFβ1 [6])",affinity ratio against TGFβRII-Fc homodimer (TGFβ2 [7]),off-rate ratio against TGFβRII-Fc homodimer (TGFβ2 [7])
B1,no binding,no binding,0.4 pM,2.9e-06 s⁻¹,6.6e+06 M⁻¹ s⁻¹,38 pM,0.001 s⁻¹,2.7e+07 M⁻¹ s⁻¹,12 pM,0.0017 s⁻¹,1.4e+08 M⁻¹ s⁻¹,~200 pM,< 90 pM,< 350 pM,,
B2,no binding,no binding,0.07 pM,2.8e-07 s⁻¹,4.2e+06 M⁻¹ s⁻¹,38 pM,0.001 s⁻¹,2.7e+07 M⁻¹ s⁻¹,14 pM,0.00092 s⁻¹,6.6e+07 M⁻¹ s⁻¹,154 pM,35 pM,204 pM,~100000 fold,~10000 fold
